Test results as given in patent US20250122278A1, “ANTI-INTERLEUKIN-9 ANTIBODY AND USE THEREOF” (GUANGDONG KEGUANDA PHARMACEUTICAL TECHNOLOGY CO., LTD., priority 2022, published 2025).

B1: 7F3com (antibody, V domains shown)
VH: QVQLVQSGAEVKKPGSSVKVSCKASGGTFSYYWIEWVRQAPGQGLEWMGEILPGSGTTNPNEKFKGRVTITADESTSTAYMELSSLRSEDTAVYYCARADYYGSDYVKFDYWGQGTLVTVSS
VL: DIQMTQSPSSLSASVGDRVTITCKASQHVITHVTWYQQKPGKAPKLLIYGTSYSYSGVPSRFSGSGSGTDFTLTISSLQPEDFATYYCQQFYEYPLTFGGGTKVEIK
notes: also called IL-9 positive control antibody; IL-9 positive antibody
B2: 38-D8-C7-G9 chimeric antibody (CA1) (antibody, V domains shown)
VH: EVQLKQSGAELMKPGASVKLSCKATGYTFTGYWIEWVKLRPGHGLEWIGEILPGSGSTNYNEEFKGKATFTADTSSNTAYMQLNSLTTEDSAIYYCARRTYYYGIPEDYWGQGTSVTVSS
VL: DIVMTQSQKFMSTSVGDRVSVTCKASQNVGTNVAWHQQKPGQSPKPLIYSASYRYSGVPDRFTGSGSGTDFTLTISNVQSEDLAEYFCQQYNSYPLTFGAGTKLELK
notes: also called CA1 antibody; human-mouse chimeric antibody CA1

Assays:
[1] = molecular target: T1, biotin-conjugated IL-9-Fc (Biotin-IL-9-Fc) (UniProt P15248 19-144, biotin-conjugated (sites not given)); assay: flow cytometry blocking assay (IL-9-IL-9R blocking determination): serially diluted antibody against the binding of Biotin-IL-9-Fc to 293-IL-9R cells (IL-9R), MFI; unit taken from the x axis, the table prints none
T1 construct: range 19-144; also called Fc-IL-9 recombinant protein; Fc-IL-9; not shown: Fc tag (Fc2 in the vector name pLVX-Fc2-IL9 (19-144)-Puro)

[2] = molecular target: T2, IL-9-His recombinant protein (UniProt P15248 19-144); assay: ELISA on coated IL-9-His, OD450; unit taken from the x axis, the table prints none
T2 construct: range 19-144; used as coating antigen in the ELISAs; also called IL9 (19-144)-His; not shown: His tag, C-terminal by the vector name

[3] = molecular target: T2, IL-9-His recombinant protein; assay: ELISA on IL-9-His, 293F culture supernatant, antibody concentration 2 µg/mL
Description: (§1) ELISA was conducted according to a standard protocol to determine the affinity of a purified antibody for the IL-9-His recombinant protein. In short, the IL-9-His recombinant protein was diluted with sterile PBS and added at 100 μL/well to a 96-well plate. The plate was incubated at 4° C. overnight and then blocked with a blocking buffer. 100 μL of a purified anti-IL-9 antibody serially diluted was added to the plate, and the plate was incubated for 1 h at room temperature. PBS was added to a control well. The plate was washed with PBST 3 times. Then 100 μL of horseradish peroxidase (HRP)-labeled anti-mouse IgG H&L (BIODRAGON, CAT #BF03001) was added, and the plate was incubated for 1 h at room temperature. The plate was washed with PBST 3 times. Then a chromogenic reaction was conducted with a 3,3′,5,5′-tetramethylbenzidine (TMB) chromogenic solution at room temperature. An OD value in each well was read by a microplate reader. Data was processed with PRISM GraphPad, and curves were plotted. The EC₅₀ value for each candidate antibody was calculated.

[4] = molecular target: T2, IL-9-His recombinant protein; assay: ELISA on IL-9-His, 293F culture supernatant, antibody concentration 2 µg/mL (second well)
Description: as §1

[5] = molecular target: T1, biotin-conjugated IL-9-Fc …; assay: flow cytometry blocking assay (IL-9-IL-9R blocking determination): serially diluted chimeric antibody against the binding of Biotin-IL-9-Fc to 293-IL-9R cells (IL-9R), MFI; unit taken from the x axis, the table prints none
Description: The plate was washed with PBS once. […] Washing was conducted with PBS, and then resuspension was conducted with PBS. Flow cytometry was conducted.

[6] = molecular target: T2, IL-9-His recombinant protein; assay: BLI (ForteBio), antibody on Protein A sensor, antigen 7.81-125 nM in solution
Excerpt: The affinity of a humanized antibody was detected by ForteBio (BLI). […] An affinity detection procedure was as follows: equilibration for 60 s, binding for 180 s, and dissociation for 180 s.

[7] = molecular target: T2, IL-9-His recombinant protein; assay: ELISA on IL-9-His, 293F culture supernatant, antibody concentration 1 µg/mL (second well)
Description: as §1

[8] = molecular target: T1, biotin-conjugated IL-9-Fc …; assay: flow cytometry blocking assay (IL9-IL9R blocking determination): serially diluted antibody against the binding of Biotin-IL-9-Fc to 293-IL-9R cells (IL-9R), MFI; unit taken from the x axis, the table prints none
[9] = molecular target: T2, IL-9-His recombinant protein; assay: ELISA on IL-9-His, 293F culture supernatant, antibody concentration 1 µg/mL
Description: as §1

T1 sequence (P15248 19-144 limits assumed, form in doubt): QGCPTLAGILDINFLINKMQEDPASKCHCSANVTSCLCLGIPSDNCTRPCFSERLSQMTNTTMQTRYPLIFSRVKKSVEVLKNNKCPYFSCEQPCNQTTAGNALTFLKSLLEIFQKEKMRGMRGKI
T2 sequence (P15248 19-144 limits assumed, form in doubt): as above

Binder | EC50 [1] [µg/mL] | EC50 [2] [µg/mL] | ELISA OD450 [3] [OD450] | ELISA OD450 [4] [OD450] | EC50 [5] [µg/mL] | Kd [6] [pM] | koff [6] [s⁻¹] | kon [6] [M⁻¹ s⁻¹] | ELISA OD450 [7] [OD450] | EC50 [8] [µg/mL] | ELISA OD450 [9] [OD450]
B1 | 10.2 | 0.0459 | – | – | – | – | – | – | – | – | –
B2 | – | 0.022 | 2.48 | 2.6 | 5.96 | 440 | 0.000934 | 2.13e+06 | 2.55 | 2.07 | 2.43
